Measurements as given in the nanobody polyreactivity screen of Harvey et al. (2022).

Assay: yeast display, Sf9 membrane polyspecificity reagent, FACS + sequencing; frameworks hold sequencing errors
In short: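 A nanobody's polyreactivity label depends on the gate it was sorted from. Yeast display cells were stained with 10% biotinylated, detergent-solubilized Sf9 membrane reagent for 1 hour at 4 °C, enriched on streptavidin microbeads and sorted by FACS. The low and high (top ~1%) gates were set on anti-HA fluorescence for expression and streptavidin fluorescence for reagent binding.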

| Sequence | polyreactivity (PSR sort gate) |
| --- | --- |
| QVQLVESGGGLVQAGGSLRLSCAASGSIFNGNAMGWYRQAPGKERELVAAITRRGGRTYYADSVKGRFTISRDNAKNTVYLQMNSLKPDDTAVYYCNAYSKAVQGGYDYWGQGTQVTVSS | high polyreactivity |
| QVQLVESGGGLVQAGGSLRLSCAASGITFYRKAMGRYRQAPGKERELVAAISRRGGITRYADSVKGRFTISRDNAKNTVYLQMNSLKPEDTAVYYCATVRYRWYSFQAERYYWGQGTQVTVSS | high polyreactivity |
| QVQLVESGGGLVQAGGSLRLSCAASGFIFFQYAMGWYRQAPGKERELVAAITARSGSTYYADSVKGRFTISRDNAKNTVYLQMNSLKPEDTAVYYCAARPRYYRWGPLDYWGQGTQVTVSS | high polyreactivity |
| QVQLVESGGGLVQAGGSLRLSCAASGRIYGGYAMGWYRQAPGKERELVAAISSRGGSTYYADSVKGRFTISRDNAKNTVYFQMNSLKPEDTAVYYFADDGRVKGWGQGTQVTVSS | high polyreactivity |
| QVQLVESGGGLVQAGGSLRLSCAASGSTFGTYTMGWYRPAPGKERELVAAISNRGGTYYADSVKGRFTISRDNAKNTVYLQMNSMKPEDTAVYYCAVARRWGYDYWGQGTQVTVSS | high polyreactivity |
| QVQLVESGGGLVQAGGSLRLSCAASGITFKAYAMGWYRQAPGKDRELVAAINTSGARTYYADSVKGRFTISRDNAKNTVYLQMNSLKPEDTAVYYCNARLHQQEGDYWGQGTQVTVSS | low polyreactivity |
| QVQLVESGGGLVQAGGSLRLSCAASGFIFPSNSMGWYRQAPGKEREFVAAISSRGGSTTYADSVKGRFTISRDYAKNTVYLQMNSLKPEDTAVYYCARDWYYYPQYRQRYYYWGQGTQVTVSS | high polyreactivity |
| QVQLVESGGGLVQAGGSLRLSCAASGFIFCINAMGWYRQAPGKERELVAAISRSGGRTYYADSVKGRFTISRDNAKNTVYLQMNSLKPEDTAVYYCAADKASYTNYDGDYWGQGTQVTVSS | high polyreactivity |
| QVQLVESGGGLVQAGGSLRLSCAASGSIFRGNAMGWYRQAPGKERELVAAISSRGGSTYYADSVKGRFTISRDNAKNTVYLQMNSLKPEDTAVYYCGAVRYKYWGVQRSYSWGQGTKVTVSS | high polyreactivity |
| QVQLVESGGGLVQAGGSLRLSCAASGSNSDPYAMGWYRQAPGKEREFVAAITFSVSSTYYADSVKGRFTISRDNAKNTVYLQMNSLKPEDTAVYYCAARRPLYPERDYWGQGTQVTVSS | high polyreactivity |
| QVQLVESGGGLVQAGGSLRLSCAASGRTFGYNAMGWYSQAPGKERELVAAISRSGGRTYYADSVKGRFTISRDNAKNTVYLQMNSLKPEDTAVYYCAAESYHRGYDYWGQGTQVTLSS | high polyreactivity |
| QVQLQESSGGLVQAGGSLRMGCAASGTIFHFHIMGWYRPAPGKEREFVAAISYGTSTYYADSVKGRFTISRDNAKNTVYLQMNSQKPEDTAVYYCAVYDYLEVYCWYWGQGTQVNVSS | low polyreactivity |
| QVQLVESGGGLVQAGGSLRLSCAASGSIIVGYAMGWYRQAPGTERELVAAISWSGGRTYYADSVKGRFTISRDNAKNSVYLQMNSLKPEDTAVYYCATVTKGSLRYNYNYWGQGTQVTVSS | high polyreactivity |
| QVQLVESGGGLVQAGGSLRVSCAASGSTFRHYAMGWSRQAPGKEWELVAAISSTGGSTYYADSVKGRFTISRDNAKNTVYLQMNSLKPEDTAVYYCAARRLYWGQGTQVTVSS | high polyreactivity |
| QVQLVESGGGLVQAGGSLRLSCAASGRIFAYNAMGWYREAPGKERELVASITSGGGRTYYADSVKGRFTISRDNAKNTVYLQMNSLKPEDTAVYYCNVDVSLSKFGSVLYDYWGQGTQVTVSS | low polyreactivity |
| QVQLVESGGGLVQAGGSLRLSCAASGFTFLYNAMGWYRQAPGKERELVAAIDSGGNTNYADSVKGRFTISRDNAKITVYLQLNSLKPEDTAVYYCAADVVSGGQGTADYDYWGQGTQVTVSS | low polyreactivity |
| QVQLVESGGGLVQAGGSLRLSCAASGNTIRVYAMGWYRQAPGKERELVAAITWSGSRTYYADSVKGRFTISRDNAKNTVYLQMNSLKPEDTAVYYCAARFVRPAYNYWGQGTQVTVSS | high polyreactivity |
| QVQLGESGGGLVQAGGSLRFSCAASGRPFFVYGMGWSRQAPGKERELVAAISWNGGRTYYADSVKGRFTISRDKAKNTVYLQMKSLKPEDTAVYYCNARARDYTGPSSPIFYYWGQGTQVTVSS | low polyreactivity |
| QVQLVESGGGLVQAGGSLRLSCAASGSIFVRYAMGWYRQAPGKERELVASIRSRGDSTYYADSVKGRFTISRDNAKNTVYLQMNSLKPEDTAVYYCAGRRYPPRMDYWGQGTQVTVSS | high polyreactivity |
| QVQLVESGRGLVQAGGSLRLSCAASGSTFGPYAMGWYRQAPGKEREFVAGISKSTSSTYYADSVKGRFTISRDNAKNTVYLQMNSLKPEDTAVYYCAAQGGRNRGYRYYWGQGTQVTVSS | high polyreactivity |
| QVQLVESGGGLVQAGGSLRLSCAATGSIFWVNGMGWYRQAPGKERELVAAITWSGGSTYYADSVKGRFTISRDNAKNTVYLQMNSLKPEDTAVYYCADYGQYYLWDGYGYWGQGTQVTVSS | low polyreactivity |
| QVQIVESGGGLVQAGGSLRLSCAASGFTFGVYAMGWYRQAPGKERELVAAISVSGGRTYYADSVKGRFTISRDNAKNTVYLQMNSLKPEDTAVYYCAADLGLKTSSRRTSMYYWGQGTQVTVSS | high polyreactivity |

| Sequence | polyreactivity (PSR sort gate) |
| --- | --- |
| QVQHVESGGGLVQAGGSLRLSCAASGSIFGTYAMGWYRQAPGKERELVAAIRWSSGSTYYADSVKGRFTISRDNAKYTVYLLMNSLKPEDTAVYYCNAEYVYYWLGATFGYWGQGTQVTVSS | high polyreactivity |
| QVQLVESGGGLVQAGGSLRLSCADSGRIFDFNAMGWYRQAPGKERELVASIDWSGGNTYYADSVKGRFTISRDNAKNTVYVQMNSLKPEDTAVYYCNRDFWGVWEYDYWGQGTQVTVSS | low polyreactivity |
| QVQLVESGGGLVQAGGSLRLSCAASGRIFPANAMGWYRQAPGKERELVAAISSSGGSTYYADSVKGRFTISRDNAKNTVYLQMNSLKPEDTAVYYCAKVHYRWPRVTWPNVWWSFEYWGQGTQVTVSS | low polyreactivity |
| QVQLVESGGGLVQAGGSLRLSCAASGSTFGYNAMAWYRQAPGKERELVAAISWSGGSTYYADSVKGRFTISRDNAKNTVYLQMNSLKPEDTAVYYCATPYVKWNDYWGQGTQVTVSS | low polyreactivity |
| QVQLVESGGGLVQAGGSLRLTCAASGIIFYGYAIGWYRQAPGKERQLVAAISSGGGTNYADSVKGRFTISRDNAKNTVYLQMNSLKPEDTAVYYCAARQYRRVKQGNYWGQGTQVTLSS | high polyreactivity |
| QVQLVESGGGLVQAGGSLRLSCAASGRIFNKNAMGWYRQAPGKERELVAAITYSGGSTYYADSVKGRFTISRDNAKNTVYLQMNSLKPEDTAVYYSARDLYYVYSFAPYRYEYWGQGTQVTVSS | low polyreactivity |
| QVQLVESGGGLVQAGGSLRLSCAASGSIFEYNAMGWYRQAPWKERELVAAITSGGSTNYADSVKGRFTISRDNAKNTVYLQMNSLKPEDTAVYYCAKKYRSVPKYLYRITKYNYWGQGTQVTVSS | low polyreactivity |
| QVQLQDSGGGLVLAGGSLRLSCSASGNISVYGSMGWYRQAPGKEREFVATIDPGTNTNYADSVKDRFTISRDNAKNTVYLQMNSLKPEDTAVYYCAVEAGSDWPYRYWGQGTQVTVSS | low polyreactivity |
| QVQLVESGGGLVQAGGSLRLSCAASGSILPYYAMGWYRQAPGKERELVAAISDSGGSTYYADSVKGRFTISRDNSKNTVYLQMNILKPEDTAVYYCNAVVRSTAHGYWGQGTQVTVSS | high polyreactivity |
| QVQLVESGGGLVQAGGSLRLSCAASGITFEGYAMGWYRQAPGNEREFVAAITSTGTSTRYADSVKGRFTISRDNAKNTVYLQMNSLKPEDTAVYYCAATSHFLSWHLRYYWGQGTQVTVSS | high polyreactivity |
| QVQLVESGGGLVQAGGSLRLSGAASGSTFVIYAMGWSRQAPGKERELVAAIRLGGGSTYYADSVKGRFTISRDNAKNTVYLQMNSLKPEDTEVYYCAAEVDQWYYRGYVYWGQGTQVTVSS | high polyreactivity |
| QVQLVESGGGLVQAGGSLRLSCAASGSIFFYYAMGWYRQAPGKERELVAAITSSDGDTYYADSVKGRFTISRDNAKNTVYLQMYSLKPEDTAVYYCAAESGPSPPITTSSNEYWGQGTLVTVSS | low polyreactivity |
| QVQLVESGGGLVQAGGSLRLSCAASGRTFRSNAMGWDRQAPGKEREFVAAISSGGSTKYADSVKGRFTISRDNAKNTVYLQMNSLKPEDTAVYYCAAVSHSRYWGQGTQVTVSS | high polyreactivity |
| QVQLVESGGGLVQPGGSFHLSCAASGSIFVVYAMGWYRQAPVKERELVAAITSGGSTYYADSVKGRFTISRDNAKKTVYLQMNSLKPEDTAVYYCATTYRDGVYELTTFDYWGQGTQVTVSS | low polyreactivity |
| QVQLVESGGGLVQAGGSLRLSCAASGFTVGVYAMGWYRQAPGKERELVAAISSGGSTNYADSVKGRFTISRDNAKNTVYLQMNSLKPEDTAVYYCAADAVSGGQGTADYDYWGQGTQVTVSS | low polyreactivity |
| QVQLVESGGGLVQAGGSLRLSCAPSGYTFARYAMGWSRQAPGKDRELVAAITSSGGSTYYADSVKGRFTSSRDNAKNTVYLQMNSLKPEDTAVYYCNARGFQKSDPRGYLILNYWGQGTQVTVSS | high polyreactivity |
| QVQLEESGGGLVQAGGSLRLSCAASGIIFWWYAMGWYRQAPGKERELVAAISGTGGSTYYADSVKGRFTISRDNAKNTVYLQINRLKPEDTAVYFCAARGKSSSFYDYDYWGQGTQVTVSS | low polyreactivity |
| QVQLQESGGGLVQAGGSLSCAASGNIFYIKYMGWYRQEPGKEREFVASIAHGTSTYYADSVKGLFTISRDNAKNTVYLQMNSLKPVDTAVYYCAAVTQSYYSYYYWGQGTQVTVSS | low polyreactivity |
| QVQLVESGGGLVQAGGSLRLSCAASARTFSRSALGWARQAPGKERELVAAISWSGGSTYYADSVKGRFTISRDKAKNSVYLQMNSLNPEDTAVYYCAAYSRWLPAYDYWGQGTQVTVSS | high polyreactivity |
| QVQLVESGGGLVQAGGSLRLSCAASGFIFGVNAMGWYRQARGKERELVAAISTSGGSTYYADSVKGRFTISRDNAKNTVYLQMNSLKPEDTAVYYCAALLHRWAYGTYGYVYWGQGSQVTVSS | high polyreactivity |
| QVQLVESGGGLVQAGGSLRLSCAASGLIFGVNAMGWYRQAPGKEREFVARITRSGSSTYYADSVKGRFTISRDNAKNTVYLQMNSLKPEDTAVYYCAVDLFYKYDWGQGTQVTVSS | high polyreactivity |
